Measured values as given in patent US20230303674A1 (BETH ISRAEL DEACONESS MEDICAL CENTER, published 2023).
Ends that are not written are not given here.

Experiments:
[1] = biological target: antibody G1 Fab fragment; assay: Biacore competition: G1 Fab (50 nM) pre-incubated with competing peptide, flowed over human α-CGRP on SA chip
From the text: (§1) Y axis represents percentage of binding blocked by the presence of the competing peptide compared with the binding in the absence of the competing peptide.
(§2) All these peptides are amidated at the C-terminus.

[2] = biological target: antibody G1 Fab fragment; assay: Biacore competition: G1 Fab (50 nM) pre-incubated 1 h with 10 µM competing peptide, flowed over N-biotinylated human α-CGRP on SA chip
From the text: as §1, §2

[3] = biological target: antibody G1 Fab fragment; assay: Biacore, 50 nM G1 Fab with 10 µM peptide, over human α-CGRP on chip
From the text: as §1, §2

Chain of antibody G1 Fab fragment (VH, as listed by the source, chain 1 of 2): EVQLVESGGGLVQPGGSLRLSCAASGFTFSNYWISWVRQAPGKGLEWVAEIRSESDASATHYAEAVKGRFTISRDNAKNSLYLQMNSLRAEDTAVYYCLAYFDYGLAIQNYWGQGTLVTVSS
Chain of antibody G1 Fab fragment (VL, as listed by the source, chain 2 of 2): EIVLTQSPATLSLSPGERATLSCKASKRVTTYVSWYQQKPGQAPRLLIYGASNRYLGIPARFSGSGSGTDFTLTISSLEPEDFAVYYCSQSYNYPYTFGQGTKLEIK

binding result [1]	% Binding Blocked [2] [%]	% of binding blocked [3] [%]	Binder
no binding (tested: 10 µM)			ACDTATCVTHRLAGLLSRS-OH (ends and bridges not checked, not amidated) [human α-CGRP 1-19-COOH]
no binding (tested: 10 µM)			ACDTATCVTHRLA-OH (ends and bridges not checked, not amidated) [human α-CGRP 1-13-COOH]
	83.3		SGGVVKNNFVPTNVGSKAF-OH (free C-terminal carboxyl, not amidated; also called 19-37 (not amidated at the C-terminus)) [human α-CGRP 19-37-COOH]
	40.6	~40	ACDTATCVTHRLAGLLSRSGGVVKNNFVPTNVGSKA-OH (ends and bridges not checked, free C-terminal carboxyl, not amidated; also called 1-36 (not amidated at the C-terminus)) [human α-CGRP 1-36-COOH]
